Article PMC3440409

How the values were obtained:
Settings in all cases: 1 mM MgCl2, 0.5 mM EDTA, 0.5 mM DTT, 50 mM NaCl, 10 mM Tris-HCl pH 7.5, 0.05 mg/ml poly(dI-dC), 10 ul, room temperature 30 min; footprinting in same buffer …
[1] = molecular target: T1, His-AphA (Vibrio parahaemolyticus RIMD 2210633) (UniProt Q87L53); assay: EMSA
T1 sequence: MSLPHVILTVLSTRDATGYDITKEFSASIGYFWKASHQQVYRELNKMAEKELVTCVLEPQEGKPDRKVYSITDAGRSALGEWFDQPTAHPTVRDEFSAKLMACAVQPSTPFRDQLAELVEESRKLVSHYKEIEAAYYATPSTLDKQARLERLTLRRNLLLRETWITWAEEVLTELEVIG

[2] = molecular target: T1, His-AphA (Vibrio parahaemolyticus RIMD 2210633); assay: competition
[3] = molecular target: T1, His-AphA (Vibrio parahaemolyticus RIMD 2210633); assay: DNase I footprinting

Sequence	binding [1]	binding [2]	binding [3]
AACTTCCAACCACATAATTGCGCAGCAAATAACCAGACATTTACACTACAAAAAACCCATAAAATACCAACAAATTAGAATTATTAACTACAAAATAACTCTATTGAGTATTATGTTAGTTTTTCAGGGTAATTTTGTCCTAGTATTCCACTTCATGCTTATTATTTATATACTACTTGCCTGCTGAGAGCTCATAAATCCAATCATACCTGCTCCAGCC (double strand) [aphA promoter fragment]	binds	binds	binds
AGTGGGTTGAAAGTCACATCCTTTTGCGGAAAATTCTTGGGAGCGCTGCCAAATTTTCGAAAGTTTACAGCAAAACTTATCAATAATAATGACATTACTGTCTATAAATTATCCATCAGATGTTGACCTTGTGCATATGCACCATTACACTCATCACTGCTTAAAGCAATTATTAAAATAATCAATTAGGGGGTTACCCCCAACAACAACTCAAATGGCAAGGAAAATGGATATGGACTCAATTGCAAAGAGACCTAGAACTAGGC (double strand) [opaR promoter fragment (footprinting)]	–	–	binds
AGTGGTTGCTTATGAATCAATCCCAGGAAAAGGCGAGAACAGCGAACCTTCAACTCGTTAACATTTTATTTTCATTTACATTTTGACTAACTCAATTGTTAATAAATTACCTAAATTGCATTTTGAAATTGCAGAATGCAATTAAGTTTTGTTTTTTGCAAAAATTTATATAGGCAATATCAGTTTATATGAGATCTTGTGCCCAAAAATAAAGCTTTGAAAATTGGCATGATTAATGCATAATACTTCTCGACC (double strand) [qrr2 promoter fragment]	no binding	–	–
CGACGCATTATTAACCAGCACTTTCGCAAATTGCATTTGCAAAATGCAATAGCATGCAAATATGCCACTTGTTACATTGCTACTAATCACTTTCTCAGCAAAAAACCAACTACTACTTTATGATTATCCATTAGCTTTCATATTTTTACCCTATACTGCTAATTAATGAGGAAAAATACCTCAGTAAATGGATTTCACGGTT (double strand) [qrr4 promoter fragment]	binds	–	binds
GGATAAGTTCAAATTGGATCCAGCCTTAGCAGGCTCGGTTATTCTAACGACAGTGACAGATGTGGTTGGTTTTTTCGCCTTTTTGGGAACGGCGAGTTTAGTCATGCTCTAAAAAGTCCACTGTTTATTAATCAATCATTAGCATAATAGAGACAAATTGCATAACGCACTTGCAAATTGCAAAAACATTCAAAGTTTAAGCAACGTATGTCACAGAAACCAC (double strand) [qrr3 promoter fragment]	no binding	–	–
